Assay: yeast display, Sf9 membrane polyspecificity reagent, FACS + sequencing; frameworks hold sequencing errors
How it was run: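 Sorting gates, low and high (top ~1%), were placed on anti-HA fluorescence to track expression and on streptavidin fluorescence to track reagent binding. A clone's polyreactivity label is taken from the gate it came out of. The reagent was 10% biotinylated, detergent-solubilized Sf9 membrane, applied for 1 hour at 4 °C to galactose-induced yeast display cells.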

| Sequence | polyreactivity (PSR sort gate) |
| --- | --- |
| QVQLVESGGGLVQAGGSLRLSCAASGSIFPENVMGWYRQAPGKERELVAAISWSGGSTYYADSVKGRFTISRDNAKNTVYLQMNSLKPEVTAVYYCNRVPSWRIDYDYWGQGTQVTVSS | low polyreactivity |
| QVQLVESGGGLVQAGGSLRLSCAASGSIFPGNGMGWYRQAPGKEMELVASITSGARTNYADSVKGRFTISRDNAKNTVYFPMNSLIPEDTAVYYCAADIKSSIRRAYDYWGQGSQVTVSS | high polyreactivity |
| QVQLVESGGGLVQAGGSLRLSCAASGSIFPGYAMGWYRQAPGKERELVAAITFSGGSTYYADSVKGRFTISRDNAKNTVYLLMISLKPEDTAVYYCAAPGWYGGYPSFYYWGQGTQVTVSS | low polyreactivity |
| QVQLVESGGGLVQAGGSLRLSCAASGSIFPGYAMGWYRQAPGKERELVATITWSGGSTYYADSVKGRFTISRDNAKNTVYLQMNSLKPEDTAVYYCAADGVDRYLRTISYLYGYWGQGTQVTVSS | low polyreactivity |
| QVQLVESGGGLVQAGGSLRLSCAASGSIFPGYAMGWYRQAPGKERELVATITWSGGSTYYADSVKGRFTISRDNAMNTVYLQMNSLKPEDTAVYYCNADSNWYYQLNYYGLYDYWGQGTQVTVSS | low polyreactivity |
| QVQLVESGGGLVQAGGSLRLSCAASGSIFPGYAMGWYRQAPGKERELVATITYSDGSTYYADSVKRRFTISRDIATNTVFLQMNSLKPEDTAGYYCAVTYWWYYGYDYWGQGTQVTVSS | low polyreactivity |
| QVQLVESGGGLVQAGGSLRLSCAASGSIFPHNAMGWYRQAPGKERELVAAISWRDVITYYADSVKGRFTISRDNAKNTVYLQMNSLKPEDTAVYYCAAELRVYGVDYEYWGQGTQVTVSS | high polyreactivity |
| QVQLVESGGGLVQAGGSLRLSCAASGSIFPHYAMGWNRQAPGKERELVAAISSGGRTYYADSVKGRFTISRDNAKNTVYLQMNSLKPEDTAVYYCAARRIARKGYGYWGQGTQVTVSS | high polyreactivity |
| QVQLVESGGGLVQAGGSLRLSCAASGSIFPIYAMGWYRQAPGKERELVAAINRSGGSTYYADSGKGRFTISRDHAKTTVYLQMNSLKPEETAVYDCNADYGYHNQLFRGYYGWSSDHWGQGTQVTVSS | low polyreactivity |
| QVQLVESGGGLVQAGGSLRLSCAASGSIFPLYAMGWYRQAPGKERELVADITVSGGSTYYADSVKGRFTISRDNAKNTVYLQMNSLKPEDTAVYYCAKDNGPWFAYDYWGQGTQVTVSS | low polyreactivity |
| QVQLVESGGGLVQAGGSLRLSCAASGSIFPQYAMGWYRQAPGKERELVAAITWSGSRTRYADSVKGRFTISRDNAKNTVYLQMNSLKPEDTAVYYCNAVNYRSSRDSGYWGQGTQVTVSS | high polyreactivity |
| QVQLVESGGGLVQAGGSLRLSCAASGSIFPQYAMGWYRQAPGKERELVASITDSGGRTYYADSVKGRFTISRDNAKNTVYLQMHSLKPEDTAVYYCAAVSLWWSDYYFVEYDYWGQGTQVTVSS | high polyreactivity |
| QVQLVESGGGLVQAGGSLRLSCAASGSIFPQYAMGWYRQAPGTERELVDAITWSGSRTRYADSVKGRFTISRDNAKNTVYLQMNSLKPEDTAVYYCAARFNGQTYYYCGQGTQVTVSS | high polyreactivity |
| QVQLVESGGGLVQAGGSLRLSCAASGSIFPRYAMGWYRQAPGKEREFVAAITGSGSSTYYADSVKGRFTISRDNAKNTVYLQMNSLKPEDTAVYYCAARKARPPFPHPFDYYWGQGTQVTVSS | low polyreactivity |
| QVQLVESGGGLVQAGGSLRLSCAASGSIFPSNAMGWYRQAPGKERELVAGITRGGSTNYADSVKGRFTISRDNAKNTVYLQMNSLKPEDTAVYYCAADSGFDTAPYDYWGQGTQVTVSS | low polyreactivity |
| QVQLVESGGGLVQAGGSLRLSCAASGSIFPSNVMGSYRQAPGKERELVAAISNTGSTNYADSVKGRFTISRDNAKNTVYLQMNSLKPEDTAVYYCNADASYGFWSLLDYDYWGQGTQVTVSS | low polyreactivity |
| QVQLVESGGGLVQAGGSLRLSCAASGSIFPSYAMGWYRQAPGKERELVATISGSGTRTYYADSVKGRFTISRDNAKNTVYVQMNSLKPEDTAVYDCARLPPGDMDYWGQGTQVTVSS | low polyreactivity |
| QVQLVESGGGLVQAGGSLRLSCAASGSIFPSYAMGWYRQAPGQERELVATIGRGGTTNYADSVKGRFTISRDNAKNTVYLQMNSLKPEDTAVYYCNAERIWRYKYGYDYWGQGTQVNVSS | high polyreactivity |
| QVQLVESGGGLVQAGGSLRLSCAASGSIFPTYAMGWYRQAPGKERELVAAIRSGSNTYYADSVKGRFTISRDNAKNTVYLQMNSLKPEDTAVYYCNVGPQRKYPGRRTVPFGYWGQGTQVTVSS | low polyreactivity |
| QVQLVESGGGLVQAGGSLRLSCAASGSIFPVYAMGWYRQAHGKVREFVASIRWRGGSTSYADSVKGRFTISRDNAKNTVYLQMNSLKPEETAVYYCNAVYYSWSQSARFDYWGQGTQVTVSS | low polyreactivity |
| QVQLVESGGGLVQAGGSLRLSCAASGSIFPVYAMGWYRQAPGKDRELVAAISFSTGSTYYADSVKGRFTISRDNAKNTVYLQMNSLKPEDTAVFYCAKYDYTDYEYWGQGTQVTVSS | high polyreactivity |
| QVQLVESGGGLVQAGGSLRLSCAASGSIFPVYAMGWYRQAPGKERELVAAISSRGGTTYYADSVKGRFTISRDNAKNTVYLQMNSLKPEDTAVYYCAATRSGKYYGTRRKYGYWGQGTQVTVSS | high polyreactivity |

| Sequence | polyreactivity (PSR sort gate) |
| --- | --- |
| QVQLVESGGGLVQAGGSLRLSCAASGSIFPVYAMGWYRQAPGKERELVASISTGGSTYYADSVKGRFTISRDNAKNTVYLQMNSLKPEDTAVYYCAATGWAYGYGYGYWGQGTQVTVSS | low polyreactivity |
| QVQLVESGGGLVQAGGSLRLSCAASGSIFPWNTMGWYRQAPGKERELVARISTSGASTYYADSVKGRFTISRDNAKYTVYLQMNSLKQEDTAVYFCAKVRHYGGRSWWYYYWGQGTQVTVSS | high polyreactivity |
| QVQLVESGGGLVQAGGSLRLSCAASGSIFPWYAMGWYRQAPGKERELVAAITISGGSTHYADTVKGRFTISRDNAKYTVYLQMNSLKPEDTAVYYCATPRYPSYDYWGQGTQVTVSS | low polyreactivity |
| QVQLVESGGGLVQAGGSLRLSCAASGSIFPYAMGWYRQSPGKERELVAAITRSGASTYYADSVKGRFTISRDNAKNTVYLQMNSLKPEDTAVYYCAAYALRGVRYPYRVDFYYWGQGTQVTVSS | high polyreactivity |
| QVQLVESGGGLVQAGGSLRLSCAASGSIFPYAMGWYRQSPGKQRQLVAVISWSGASTYYADSVKGRFTISRDNAKNTVDLQMNSLKPEDTAVYYCAVYRYYKLVHLYGYDYWGQGTQVTVSS | high polyreactivity |
| QVQLVESGGGLVQAGGSLRLSCAASGSIFPYNAMGWYRQAPGKEREFVAAITYSGGSTYYADSVKGRFTISRDNAKNTVYLQMNSLKPEDTAVYYCAAGYSSRGSRDGYWGQGTQVTVSS | low polyreactivity |
| QVQLVESGGGLVQAGGSLRLSCAASGSIFPYNVMGWYRQAPGKERELVAAISTRGGRTYYADSVKGRFTISRDNAKNTVYLQMNSLKPEDTAVYYCNTVVLRYLYNYWGQGTQVTVSS | high polyreactivity |
| QVQLVESGGGLVQAGGSLRLSCAASGSIFQDYAMGWSRQAPGKERELVAVITRGGSKYYADSVKGRFTISRDNAKNTVYLQMNSLKPEDTAVYYCNTRRGRGGKYDYWGHGTQVTVSS | low polyreactivity |
| QVQLVESGGGLVQAGGSLRLSCAASGSIFQGNAMGWYRQAPGKERELVAAITYSGGSTYYADSVKGRFTISRDNAKNTVYLQMHSLKREDTAVYYCAAFFPSDLVDGYNYWGQGTQVTVSS | low polyreactivity |
| QVQLVESGGGLVQAGGSLRLSCAASGSIFQGNVMGWSRQAPGKERELVAAISSGGRTYYADSVKGRFTISRDNAKNTVYLQMNSLKPEDTAVYYCAASWLTSYAYIMYYWGQGTQVTVSS | high polyreactivity |
| QVQLVESGGGLVQAGGSLRLSCAASGSIFQIYAMGWYRQAPGKESELVATINRGDNTYYADSVKGRFTISRDNAKNTVYLQMHSLTPEDSAVYYCNVDRQVITGRYIGDYWGQGTLVTVSS | low polyreactivity |
| QVQLVESGGGLVQAGGSLRLSCAASGSIFQPYAMGWYRQAPGKERELVAAISIGDSTNYADSVKGRFTISRDNAKNTVYLQMNSLKPADTAVYYCNTTGEYYDYWGQATQVTVSS | low polyreactivity |
| QVQLVESGGGLVQAGGSLRLSCAASGSIFQQYAMGWYRQAPGKERELVAAISWGDGSTYYADSVKGRFTISRDNAKNTVYLQMNSLKPEDTAVYYCNAYASAPLWSLEDDYWGQGTQVTVSS | low polyreactivity |
| QVQLVESGGGLVQAGGSLRLSCAASGSIFQQYAMGWYRQAPGKERELVAAISYSGGTTYYADSVKGRFTISRDNAKNTVYLQMNSLKPEDTAVYYCAAYYPSGSYDYYWGQGTQVTVSS | low polyreactivity |
| QVQLVESGGGLVQAGGSLRLSCAASGSIFQRNAMGWYRQAPGKERELVAAISRSGGRTYYADSVKGRFTISRDNAKNTVYLQMNSLKPEDTAVYYCAADSPYIQNRFEYWGQGTQVTVSS | high polyreactivity |
| QVQLVESGGGLVQAGGSLRLSCAASGSIFQRYAMGWYRQAPGKEREFVAAISGRGGSTYYADSVKGRFTISRDNAKNTVYLQMNSLKPEDTAVYYCADDSSRFYGRPRYYYWGQGTQVTVSS | high polyreactivity |
| QVQLVESGGGLVQAGGSLRLSCAASGSIFQRYAMGWYRQAPGKERELVAGINWSGGRTYYADSVKGRFTISRDNAKNTVYLQMNSLKPEDTAVYYCAKPVERYTYSLYQQYDYWGQGTQVTVSS | high polyreactivity |
| QVQLVESGGGLVQAGGSLRLSCAASGSIFQSNAMGWYRQAPGKEREFVAAITASGGRTYYADSVKGRFTISRDNAKNTDYLLMNSLKPEDTAVYFCAARGRYYWGGRSYDYWGHGTQVTVSS | high polyreactivity |
| QVQLVESGGGLVQAGGSLRLSCAASGSIFQSNAMGWYRQAPGKERELFAAISWNTGSTYADSVKGRFTISRDNAKNTVYLQMNSLKPEDTAVYYCAADRSHAYYRKNRVDYWGQGTQVTVSS | low polyreactivity |
| QVQLVESGGGLVQAGGSLRLSCAASGSIFQTYAMGWYRQAPGKERELVAAIDGGDTTNYADSVKGRFTISRDNAKNTVYLQMNSLKPEDTAVYYCNADWGQVTQVTVSS | low polyreactivity |
| QVQLVESGGGLVQAGGSLRLSCAASGSIFQWNAMGWYRQAPGKERELVAAISTRGGRTYYADSVKGRFTISRDNAKNTDYLQMNSLKPEDTAVYYCAKQYGSYGRYYKYYYWGQGTQVTVSS | high polyreactivity |

Source: the nanobody polyreactivity screen of Harvey et al. (2022)
